Measured values reported in publication PMC7658014.

Biological target: T1, His6-OpaR (Vibrio parahaemolyticus (VP93?)) (UniProt Q79YV4)
T1 sequence: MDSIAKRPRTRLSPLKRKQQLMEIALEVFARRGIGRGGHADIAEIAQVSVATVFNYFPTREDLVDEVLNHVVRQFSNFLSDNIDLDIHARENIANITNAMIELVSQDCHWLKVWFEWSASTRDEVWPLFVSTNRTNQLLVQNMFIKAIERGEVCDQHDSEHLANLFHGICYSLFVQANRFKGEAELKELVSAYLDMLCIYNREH
Experiment: EMSA
Settings: EMSA: 0.4 ng probe, 20 uL of 100 mM HEPES pH 7.6, 5 mM EDTA, 50 mM (NH4)2SO4, 5 mM DTT, 1% Tween 20, 150 mM KCl, 25 C, 30 min; footprinting: 75 ng probe, DIG …

Sequence	binding
GGTTTATCCTATAAATTGCGGATATTTTAAGAAATTAATATTCATTAAATTGATAACTGGCGACGGATCTTTATGATGACGGTTGATATGCCGATAGAGCACTCATTAGCCAGT (double strand) [lytM P1]	binds
GCGCCAAAATGGCATAGAAAGGTGAAGAATAGCATTACATTGAAAAATAACAAAAGGGCAGTGCGTGATCGCACTGCCCTTTTAATAATCAGATTGATAGTAAGATTAACTCTTCGAGCTTTATCACCAAGAGTGATGAATCAATCG (double strand) [degS P1]	binds
